Here are results for one molecule from article PMC5830917 (The EMBO Journal, 2018).

The assay deals with T1, GFP-NBR1 (human, UniProt Q14596-1 1-966).
T1 construct: NBR1, human, ORF amplified from a HeLa cDNA library; The TEV site lies between StrepII and GFP, so the cleaved protein keeps GFP; also called 6xHis‐Strep‐TEV‐GFP‐NBR1; Strep‐TEV‐GFP‐NBR1; source: Sf9 insect cells (Bac-to-Bac), purified (HisTrap, TEV cleavage, Superose6); not shown: His6, N-terminal, cleaved; StrepII, N-terminal, cleaved; GFP (meGFP, A206K), N-terminal, kept
T1 sequence (looked up): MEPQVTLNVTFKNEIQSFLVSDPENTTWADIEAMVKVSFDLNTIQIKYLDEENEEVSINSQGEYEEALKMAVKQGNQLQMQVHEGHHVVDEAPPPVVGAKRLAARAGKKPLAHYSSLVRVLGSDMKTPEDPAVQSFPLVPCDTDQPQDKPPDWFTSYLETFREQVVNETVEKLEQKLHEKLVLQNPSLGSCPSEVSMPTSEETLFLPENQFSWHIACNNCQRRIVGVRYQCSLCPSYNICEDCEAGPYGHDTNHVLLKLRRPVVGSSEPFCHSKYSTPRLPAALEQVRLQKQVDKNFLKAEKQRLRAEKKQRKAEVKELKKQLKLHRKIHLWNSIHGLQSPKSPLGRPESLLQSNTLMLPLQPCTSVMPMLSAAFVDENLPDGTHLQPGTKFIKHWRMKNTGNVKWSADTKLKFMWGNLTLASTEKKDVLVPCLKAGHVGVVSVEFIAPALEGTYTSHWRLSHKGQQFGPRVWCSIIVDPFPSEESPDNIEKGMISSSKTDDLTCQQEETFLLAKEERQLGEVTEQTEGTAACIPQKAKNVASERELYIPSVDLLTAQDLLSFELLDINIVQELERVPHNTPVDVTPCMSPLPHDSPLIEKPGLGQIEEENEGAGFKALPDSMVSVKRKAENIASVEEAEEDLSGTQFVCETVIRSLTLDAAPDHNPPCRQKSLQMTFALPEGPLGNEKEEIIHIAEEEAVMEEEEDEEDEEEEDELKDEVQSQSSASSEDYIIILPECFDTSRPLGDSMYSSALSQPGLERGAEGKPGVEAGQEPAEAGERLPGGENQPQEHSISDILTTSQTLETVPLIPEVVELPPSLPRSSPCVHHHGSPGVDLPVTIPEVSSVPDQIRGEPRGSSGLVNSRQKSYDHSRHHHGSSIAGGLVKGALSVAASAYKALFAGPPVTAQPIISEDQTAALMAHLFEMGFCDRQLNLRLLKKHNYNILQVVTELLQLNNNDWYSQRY
In words: microscopy-based protein-protein interaction assay on beads; GFP-NBR1 on GFP-TRAP beads; 2 μM mCherry-p62 variants at equilibrium in 25 mM HEPES pH 7.5, 150 mM NaCl, 1 mM DTT; spinning disk imaging. The following applies: both partners purified.

B1: mCherry-p62 PB1 (1–102) (domain or fragment, UniProt Q13501 1-102, looked up)
chain: MASLTVKAYLLGKEDAAREIRRFSFCCSPEPEAEAEAAAGPGPCERLLSRVAALFPALRPGGFQAHYRDEDGDLVAFSSDEELTMAMSYVKDDIFRIYIKEK
notes: p62/SQSTM1, PB1 domain, residues 1-102; also called isolated PB1 domain of p62; source: recombinant, purified; site-directed mutagenesis on the plasmid for the full-length protein (pET-mCherry-p62 PB1); not shown: mCherry, N-terminal, kept
As to B1, the binding result was “binds”.
